Test results published in patent US11883498B2, “Luteinizing hormone-releasing hormone receptor (LHRH-R) conjugates and uses thereof” (priority 2016, dated 2024).
pIC50: −log10 of the molar value. Read-outs that look alike come from different tables or passages of the source.

Tests used:
HEC-1B tumor xenografts = settings: endometrial xenografts, 2 h post injection
Method: (§1) In vivo fluorescence imaging and biodistribution. For the development of subcutaneous tumor xenografts, MDA-MB231, OVCAR-3 and HEC-1B 5×10^6 cells in 0.2 ml sterile PBS were injected subcutaneously in the right hind flank of the female nu/nu mice. Tumor imaging was initiated once the tumor volume reached between 200 mm^3 to 300 mm^3. Each tumor-bearing mice was intravenously injected (via tail vein) with the 10 nano moles of fluorescence dye conjugate either in the presence or absence of a 100-fold excess of the unlabeled conjugate. Animals were euthanized two hours post injection using CO2 and the images were acquired using Caliper IVIS Luminal II. After performing the whole body image, the organs of interest were harvested and imaged to inspect the accumulation of the fluorescence in these organs. The image acquisition parameters were as follows: i) lamp level-high, ii) excitation-745 nm, iii) emission-ICG, iv) binning (M) 4M, (v) f-stop-4, (vi) FOV-12.5, (vii) acquisition time, 1 s. All final conjugates were purified by HPLC prior to its use in in-vitro and in vivo studies.
(§2) To determine the efficiency of the conjugates to target the receptor positive tumor in vivo female nu/nu athymic nude mice were subcutaneously implanted with either MCF7, MDA-MB231, OVCAR3 or HEC-1B. […]

OVCAR3 tumor xenografts = settings: ovarian cancer xenografts, 2 h post injection
Method: as §1, §2

[1] = tested on: MDA-MB231 tumor xenografts; assay: In vivo fluorescence imaging and biodistribution, MDA-MB231 xenografts
Method: as §1
To determine the efficiency of the conjugates to target the receptor positive tumor in vivo female nu/nu athymic nude mice were subcutaneously implanted with either MCF7, MDA-MB231, OVCAR3 or HEC-1B. Once the tumor reached an appropriate volume the mice were injected intravenously with the dye conjugates (10 nmoles) either in the presence or absence of the excess of the unlabeled targeting molecule. Mice were imaged 2 h post injection to investigate the accumulation of the dye conjugates in tumor and other vital organs.
(§3) Mice were treated intravenously with the dye conjugate either in the presence or absence of 100-fold excess of the unlabeled conjugates. […] All the images were acquired 2 h post injection. List of organs from top to bottom: Tumor, heart, lungs, pancreas, spleen, muscle, skin, small intestine, large intestine, stomach, liver, and kidney.
as §3, with “Tumor, brain,” for “Tumor,”, “stomach,” for “pancreas, spleen, muscle, skin,”, “muscle, pancreas, spleen,” for “stomach,”
Time course study. The effectiveness of JL-L3-S0456 to accumulate in the receptor-positive tumors were further inspected by injection the dye conjugate in ovarian cancer and endometrial xenografts. […] To investigate the retention time of the dye conjugate in the tumor a time-course study was performed. Mice were injected with 10 nmoles of the dye conjugates and imaged at 2 h, 8 h, and 12 h.

SKOV3 tumors = assay: In vivo efficacy of tubulysin B hydrazide conjugate, LHRH-R negative tumors; parameters: species or system mice; settings: 2 μmol/kg i.v., 3 times per week for 3 weeks
Method: (§4) Tumor model and therapy: 5-6 weeks old female nu/nu athymic nude mice were subcutaneously injected with 5.0×10^6 breast cancer cells MDA-MB231 and ovarian cancer cells SKVO3 into their shoulders. Tumors were measured in two perpendicular directions 3 times per week with Vernier calipers, and their volumes were calculated as 0.5×L×W^2, where L is the longest axis (in millimeters), and W is the axis perpendicular to L (in millimeters). Treatment was initiated once the tumor volume reached ˜100 mm^3. Dosing solutions were prepared in sterile saline and injected intravenously. […] Mice were administered with the test agents 3 times per week for 3 weeks and as a measure of gross toxicity mice were simultaneously weighed at each dosing.
In vivo efficacy of tubulysin B hydrazide conjugate: To investigate the efficacy of JL tubulysin conjugate nu/nu athymic nude bearing LHRH-R positive tumors (MDA-MB-231, breast cancer) were randomly divided into three groups: saline control, targeted, and competition and were then treated with test agents 3 days per week for 3 weeks. […] The mice in control and competition group were euthanized after the last doing whereas the mice in treatment group were continuously monitored for recurrence of tumor and weight loss. […]

MDA-MB231 cells = type: cell-based, human; settings: 2 h exposure + 66 h
Method: (§5) In vitro determination of cell viability. MDA-MB231 and SKVO3 cells were seeded at a concentration of 10,000 cells per well on a 24 well plate and allowed to grow in monolayers. […] After incubating for 2 h at 37° C., cells were rinsed three times with fresh medium and then incubated in 0.5 ml fresh medium for an additional 66 h at 37° C. Sent medium was then replaced with 0.5 ml of medium containing ^3H-thymidine and incubated for additional 4 h. Cells were then again washed three times with the fresh medium and then incubated with 0.5 ml of 2.5% trichloroacetic acid for 10 min at room temperature. After removing the trichloroacetic acid, cells were dissolved in 0.25 N NaOH. Cell viability was determined by counting the incorporation of ^3H-thymidine in cells using scintillation counter (Packard, Packard Instrument Company). The IC50 value was derived from a plot of the percent of ^3H-thymidine incorporation versus log concentration using Graph Pad Prism 4.
(§6) In vitro cytotoxicity of tubulysin B hydrazide conjugate: To inspect the killing efficiency of the therapeutic conjugate, MDA-MB231 and SKOV3 cancer cells were incubated with various concentrations of JL-L3-TubBH either in the presence or absence of excess JL-L3, for 2 h at 37° C. After washing off the excess conjugate, the cells were incubated in fresh media for an additional 66 h followed by incubation with media containing ^3H-thymidine to assess cell viability. Radioactivity was counted using PerkinElmer's scintillation counter. The same procedure was repeated after exposing the cells to the free tubulysin B hydrazide.

SKOV3 cells = type: cell-based, human; settings: receptor negative cell line, 2 h exposure + 66 h
Method: as §5, §6

MDA-MB-231 tumors = assay: In vivo efficacy of tubulysin B hydrazide conjugate, LHRH-R positive tumors; parameters: species or system mice
Method: as §4
In vivo efficacy of tubulysin B hydrazide conjugate: To investigate the efficacy of JL tubulysin conjugate nu/nu athymic nude bearing LHRH-R positive tumors (MDA-MB-231, breast cancer) were randomly divided into three groups: saline control, targeted, and competition and were then treated with test agents 3 days per week for 3 weeks. LHRH-R positive (MDA-MB-231) and negative (SKOV3) cancer cells were s.c implanted in to nu/nu athymic mice and treatment was initiated once the tumor volume reached ˜100 mm^3. Mice were randomized into several groups with 5 mice in each group. […] All the test agents were administered intravenously through tail vein. The mice in control and competition group were euthanized after the last doing whereas the mice in treatment group were continuously monitored for recurrence of tumor and weight loss. […] (FIG. 22A, The dotted vertical line indicates the day of final dosing (day 36)) Without intending to be bound by theory, this further confirmed that the efficacy of targeted tubulysin B hydrazide conjugate is receptor mediated. Moreover, to comprehensively test the anti-tumor efficacy of targeted conjugate (JL-L3-TubBH), mice bearing LHRH-R negative tumors (SKOV3, ovarian cancer) were divided into similar groups as MDA-MB-231 tumor bearing mice and a similar treatment regimen was followed. […] (FIGS. 22B & 22D)
After completion of the treatment the mice in MDA-MB-231 targeted group were monitored and kept on regular chow diet for next five weeks. During this time period the tumor volume and weight was monitored three time a week. (FIG. 23) Mice were treated with the LHRH-R targeted tubulysin B hydrazide conjugate (JR-L3-TubBH) for thrice a week for 3 weeks (n=5). After completion of the study tumor volume and weight of mice was continuously monitored till 75 days post tumor implantation. The dotted vertical line specifies the last day of dosing.

[2] = 10 nmoles i.v., 2 h post injection
[3] = 2 μmol/kg i.v., 3 times per week for 3 weeks
[4] = monitored five weeks after treatment, till 75 days post tumor implantation

Cc1c(-c2cccc(CCC(=O)NCCCCCCCC(=O)N[C@H](CCC(=O)NC[C@H](O)[C@@H](O)[C@H](O)[C@H](O)CO)C(=O)N[C@H](CCC(=O)O)C(=O)N[C@H](CCC(=O)NC[C@H](O)[C@@H](O)[C@H](O)[C@H](O)CO)C(=O)N[C@H](CSC3CC(=O)N(CCNC(=O)CCc4ccc(OC5=C(/C=C/C6=[N+](CCCCS(=O)(=O)O)c7ccc(S(=O)(=O)[O-])cc7C6(C)C)CCC/C5=C\C=C5\N(CCCCS(=O)(=O)O)c6ccc(S(=O)(=O)O)cc6C5(C)C)cc4)C3=O)C(=O)O)c2)c(=O)n(C[C@@H](N)c2ccccc2)c(=O)n1Cc1c(F)cccc1F (some centres unmarked) [JL-L3-S0456]
Tumor uptake (HEC-1B tumor xenografts): receptor-mediated uptake | Tumor uptake (OVCAR3 tumor xenografts): receptor-mediated uptake | Kidney fluorescence [1, 2]: high fluorescence | Liver fluorescence [1, 2]: none or very minimal fluorescence | Tumor uptake [1, 2]: accumulated in the breast cancer tumor | Competition of tumor uptake by unlabeled JL-L3 ([1]; 100-fold excess of unlabeled conjugate, 2 h post injection): able to compete the tumor uptake | Tumor fluorescence intensity at 12 h compared with 2 h post injection ([1]; time course, 10 nmoles, imaged at 2 h, 8 h, 12 h): only a very slight decrease in the intensity

CCCC(=O)OCN(C(=O)[C@@H](NC(=O)C1CCCCN1C)C(C)CC)[C@H](C[C@@H](OC(C)=O)c1nc(C(=O)N[C@@H](Cc2ccc(O)cc2)C[C@H](C)C(=O)NNC(=O)OCCSSC[C@@H](NC(=O)[C@@H](CCC(=O)NC[C@H](O)[C@@H](O)[C@H](O)[C@H](O)CO)NC(=O)[C@@H](CCC(=O)O)NC(=O)[C@@H](CCC(=O)NC[C@H](O)[C@@H](O)[C@H](O)[C@H](O)CO)NC(=O)CCCCCCCNC(=O)CCc2cccc(-c3c(C)n(Cc4c(F)cccc4F)c(=O)n(C[C@@H](N)c4ccccc4)c3=O)c2)C(=O)O)cs1)C(C)C (some centres unmarked) [JL-L3-TubBH]
Body weight loss (gross toxicity) (SKOV3 tumors): None of the mice either bearing MDA-MB-231 or SKVO3 experiences significant weight loss | Anti-tumor effect (tumor volume) (SKOV3 tumors; receptor negative tumors): no reduction in tumor volume | pIC50 (MDA-MB231 cells; 3H-thymidine incorporation, read-out: IC50): 7.59 | pIC50 (MDA-MB231 cells; excess JL-L3 (100-fold), read-out: IC50 in the presence of an excess of competition ligand): 6.42 | pIC50 (SKOV3 cells): 6.22 | Anti-tumor effect (tumor volume), competition group (MDA-MB-231 tumors; 2 μmol/kg i.v. with 100-fold excess of JL-L3, 3 times per week for 3 weeks): did not show any decline in tumor growth | Anti-tumor effect (tumor volume) (MDA-MB-231 tumors; [3]): complete elimination of the tumor | Body weight loss (gross toxicity) (MDA-MB-231 tumors; [3]): None of the mice either bearing MDA-MB-231 or SKVO3 experiences significant weight loss | Tumor growth after end of treatment (MDA-MB-231 tumors; [4]): None of the mice showed any indication of tumor growth and weight loss | Weight loss after end of treatment (MDA-MB-231 tumors; [4]): None of the mice showed any indication of tumor growth and weight loss
